# Data: patent publication US20180021429A1, “ANTICANCER AGENTS OR ANTIMETASTATIC AGENTS USING FSTL1 AND COMBINATION DRUG THEREOF” (PHARMA FOODS INTERNATIONAL CO., LTD., priority 2015, published 2018)
# T1: FSTL1 (Homo sapiens, UniProt Q12841)
# T1 sequence (Q12841 21-308): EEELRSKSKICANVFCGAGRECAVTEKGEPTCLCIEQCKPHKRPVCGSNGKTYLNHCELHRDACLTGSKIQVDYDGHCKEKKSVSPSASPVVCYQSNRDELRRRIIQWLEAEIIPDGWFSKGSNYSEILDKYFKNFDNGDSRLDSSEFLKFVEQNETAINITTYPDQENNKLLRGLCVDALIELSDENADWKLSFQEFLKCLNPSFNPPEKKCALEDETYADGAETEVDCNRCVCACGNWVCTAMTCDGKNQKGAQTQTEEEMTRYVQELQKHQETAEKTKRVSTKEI
# B1: #6-55: chicken-mouse chimeric anti-FSTL1 antibody clone; variable regions SEQ ID NO: 783 (light), 785 (heavy) (antibody, V domains shown)
# VH: AVTLDESGGGLQTPGGALSLVCKGSGFTFTSVTMQWVRQAPGKGLEWVASVCSGSSTYYAPAVKGRATISRDNGQSTVRLQLSNLRPEDTGTYYCAKIAGRARWSCTSAAYNIDAWGHGTEVIVSS
# VL: ASTQPSSVSAIPGETVKITCSGGGNNYGWYQQRSPGSAPVTVIYYNDNRPSNIPSRFSGSTSGSTSTLTITGVQADDEAIYYCGSWDSNTDSGIFGAGTTLTVL
# modifications: mouse constant regions
# How the values were obtained:
# [1] = test system: Treg induction caused by FSTL1; assay: Treg induction inhibitory activity using human peripheral blood cells (Example 25); type: cell-based; conditions: human PBMCs; FSTL1 5 ng/ml; antibody 5 μg/mL; 3 days
# Method: (§1) Human peripheral blood cells (1×10^6 cells) were stimulated using FSTL1 (5 ng/ml), supplemented with the antibody (5 μg/mL), and cultured for 3 days. The percentage of a Foxp3^+CTLA4^+ cell fraction (Exp. 1) or a CD4^+Foxp3^+CTLA4^+ cell fraction (Exp. 2) in CD4^+ T cells was analyzed as Treg cells by flow cytometry. The flow cytometry conditions are as follows.
# Blood was collected from a healthy person by the addition of a 1/10 amount of 4% sodium citrate, then layered on Ficoll (specific gravity: 1.090), and centrifuged (1500 rpm, 20 min, room temperature), and a cell fraction present in an intermediate layer was used as “PBMCs”. The antibody (5 μg/mL) was added to a system in which these PBMCs (1×10^4 cells) were cultured for 3 days under stimulation with FSTL1 (5 ng/ml) in a 24-well plate. PBMCs recovered from the culture system were incubated at 4° C. for 1 hour using an anti-CD4 antibody (BD Pharmingen/Becton, Dickinson and Company), an anti-CD25 antibody (BD Pharmingen/Becton, Dickinson and Company), and an anti-FoxP3 antibody (eBioscience). Then, the percentage of a Foxp3+CTLA4+ cell fraction (Exp. 1) or a CD4+Foxp3+CTLA4+ cell fraction (Exp. 2) in CD4+ T cells contained therein was analyzed as Treg cells using a flow cytometer FACScan (Becton, Dickinson and Company).
# [2] = test system: mouse lymphoma EL4; assay: In vivo lymphoma model (Example 23); conditions: intraperitoneal 10 mg/kg on days 3 and 6; vs control antibody
# Method: The drug efficacy of the anti-FSTL1 antibody was evaluated according to Examples 17 to 20 using mouse lymphoma EL4, which is a cancer type having enhanced FSTL1 expression.
# 1. Experiment Group (n=5) • 1. Mouse lymphoma EL4+control IgG (anti-DNP mAb) • 2. Mouse lymphoma EL4+anti-FSTL1 mAb (#6-55)
# • Day 0: transplantation of tumor cells (1×10^6 cells subcutaneously & 1×10^6 cells intravenously) • Day 3: intraperitoneal administration of the antibody (first dose, corresponding to 200 μg/mouse=10 mg/kg) • Day 6: intraperitoneal administration of the antibody (second dose, corresponding to 200 μg/mouse=10 mg/kg) • Day 15: various immunological assays
# • Effects on the growth of subcutaneous tumor (calculation of tumor volume by tumor size measurement): measured 3, 6, and 10 days after tumor implantation
# [3] = test system: mouse breast cancer 4T1 cells; assay: In vivo, mouse breast cancer 4T1 cell-transplanted model (Example 21); conditions: BALB/c mice; intraperitoneal 10 mg/kg on days 4 and 7
# Method: Procedures and methods of the experiment were basically performed according to Examples 17 to 20 under substantially the same conditions as in the bone metastasis model experiments of Examples 17 to 20. Drug efficacy evaluation was conducted using mouse tumor models other than Snail-positive tumor bone metastasis models. The drug efficacy of the anti-FSTL1 antibody was evaluated using cancer-bearing models of BALB/c mice different in strain from the C57BL/6 mice used in the preceding tests. Changes were made as follows. • Day 0: transplantation of tumor cells (5×10^5 cells subcutaneously & 5×10^5 cells intravenously) Days 4 and 7: intraperitoneal administration of the antibody (10 mg/kg) • Day 14: drug efficacy evaluation (subcutaneous tumor growth)
# The tumor volumes of the mice were measured 4, 7, 11, and 14 days after tumor implantation.
# [4] = biological target: T1, FSTL1; assay: Treg induction inhibitory activity using human peripheral blood cells stimulated with FSTL1; type: cell-based; set-up: purchased R&D Systems, Inc. 1694-FN-050; conditions: human PBMCs; FSTL1 5 ng/ml; antibody 5 μg/mL; 3 days
# Method: as §1
# Blood was collected from a healthy person by the addition of a 1/10 amount of 4% sodium citrate, then layered on Ficoll (specific gravity: 1.090), and centrifuged (1500 rpm, 20 min, room temperature), and a cell fraction present in an intermediate layer was used as “PBMCs”. The antibody (5 μg/mL) was added to a system in which these PBMCs (1×10^6 cells) were cultured for 3 days under stimulation with FSTL1 (5 ng/ml) in a 24-well plate. […] Then, the percentage of a Foxp3+CTLA4+ cell fraction (Exp. 1) or a CD4^+Foxp3^+CTLA4^+ cell fraction (Exp. 2) in CD4+ T cells contained therein was analyzed as Treg cells using a flow cytometer FACScan (Becton, Dickinson and Company).
# as §1, with “a Foxp3^+ CTLA4^+” for “a Foxp3^+CTLA4^+”, “cytometry. […]” for “cytometry. The flow cytometry conditions are as follows.”
molecule,measurement,setting,value
B1,Treg induction by FSTL1 (Foxp3+CTLA4+ / CD4+Foxp3+CTLA4+ cell fraction),[1],significantly suppressed
same,subcutaneous tumor growth,[2],strongly suppressed
same,growth of 4T1 subcutaneous tumor,[3],significantly suppressed
same,Treg induction caused by FSTL1 (Foxp3+CTLA4+ fraction in CD4+ T cells),[4],significantly suppressed
